Target: SMARCD1 (human) (UniProt Q96GM5)
Assay: HA-bait purification from HEK-293T nuclear extract, mass spectrometry, peptide count

Sequence of SMARCD1 (human) (Q96GM5 whole entry): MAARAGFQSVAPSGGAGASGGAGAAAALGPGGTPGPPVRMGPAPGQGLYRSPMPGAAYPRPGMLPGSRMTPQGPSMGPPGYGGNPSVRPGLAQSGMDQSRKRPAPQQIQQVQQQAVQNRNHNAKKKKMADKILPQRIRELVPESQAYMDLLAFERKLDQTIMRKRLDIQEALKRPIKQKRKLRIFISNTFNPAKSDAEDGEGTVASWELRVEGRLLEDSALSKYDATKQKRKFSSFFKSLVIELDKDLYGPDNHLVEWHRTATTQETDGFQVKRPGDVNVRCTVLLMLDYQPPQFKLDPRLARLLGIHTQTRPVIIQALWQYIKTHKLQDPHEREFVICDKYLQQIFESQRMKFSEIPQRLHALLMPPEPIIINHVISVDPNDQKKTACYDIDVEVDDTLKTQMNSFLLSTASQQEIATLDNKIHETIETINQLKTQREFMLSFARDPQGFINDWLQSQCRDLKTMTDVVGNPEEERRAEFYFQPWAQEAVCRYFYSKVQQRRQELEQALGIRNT

Total: 73 peptides
Unique: 44 peptides
B1: HA-BRD7 (protein, human)
chain: MYPYDVPDYAMGKKHKKHKSDKHLYEEYVEKPLKLVLKVGGNEVTELSTGSSGHDSSLFEDKNDHDKHKDRKRKKRKKGEKQIPGEEKGRKRRRVKEDKKKRDRDRVENEAEKDLQCHAPVRLDLPPEKPLTSSLAKQEEVEQTPLQEALNQLMRQLQRKDPSAFFSFPVTDFIAPGYSMIIKHPMDFSTMKEKIKNNDYQSIEELKDNFKLMCTNAMIYNKPETIYYKAAKKLLHSGMKILSQERIQSLKQSIDFMADLQKTRKQKDGTDTSQSGEDGGCWQREREDSGDAEAHAFKSPSKENKKKDKDMLEDKFKSNNLEREQEQLDRIVKESGGKLTRRLVNSQCEFERRKPDGTTTLGLLHPVDPIVGEPGYCPVRLGMTTGRLQSGVNTLQGFKEDKRNKVTPVLYLNYGPYSSYAPHYDSTFANISKDDSDLIYSTYGEDSDLPSDFSIHEFLATCQDYPYVMADSLLDVLTKGGHSRTLQEMEMSLPEDEGHTRTLDTAKEMEITEVEPPGRLDSSTQDRLIALKAVTNFGVPVEVFDSEEAEIFQKKLDETTRLLRELQEAQNERLSTRPPPNMICLLGPSYREMHLAEQVTNNLKELAQQVTPGDIVSTYGVRKAMGISIPSPVMENNFVDLTEDTEEPKKTDVAECGPGGS

From patent publication US20210388040A1
